# Test results taken from article PMC7042716 (Cell, 2020).
# B1: 561_01_21 (antibody, V domains shown)
# VH: QRRLFQSGTEVKRPGASVKISCRADDDPYTDDDTFTKYYTHWIRQAPGQRPEWLGVISPHFARPIYSYKFQDRLTLTRDSSLTAVYFELRGLQPDDTGIYFCARDPFGDMYPHYNYHMDVWGGGTTVIVSA
# VL: EVVLTQSPAILSVSPGDRVILSCKASEGLSSSDLAWYRFKGGQIPTLVIFGTSTRARGTPDRFSGSGSGTDFTLTISRVEPEDFATYYCQRYGGTPITFGGGTTLDKK
# B2: 561_01_33 (antibody, V domains shown)
# VH: QGRLFQSGTEVKRPGASVKISCRADDDPYTDDDTFTKYYTHWIRQAPGQRPEWLGVISPHFARPIYSYKFRDRLTLTRDSSLTAVYFELRGLQPDDTGIYFCARDPFGDMYPHYNYHMDVWGGGTTVIVSA
# VL: EVVLTQSPAILSVSPGDRVILSCKASEGLSSSDLAWYRFKGGQIPTLVIFGTSNRARGTPDRFSGSGSGTDFTLTINRVQPEDFATYYCQRYGGTPITFGGGTTLDKK
# B3: 561_01_54 (antibody, V domains shown)
# VH: QGRLFQSGTEVKRPGASVKISCRADDDPYTDDDTFTKYYTHWIRQAPGQRPEWLGVISPHFARPIYSYKFQDRLTLTRDSSLTAVYFELRDLQSDDTGIYFCARDPFGDMYPHYNSHMDVWGGGTTVIVSA
# VL: EVVLTQSPAILSVSPGDRVILSCKASEGLSSSDLAWYRFKSGQIPTLVIFGASNRARGTPDRFSGSGSGTDFTLTINRVEPEDFATYYCQRYGGTPITFGGGTTLDKK
# B4: 561_02_10 (antibody, V domains shown)
# VH: QGRLFQSGTEVKRPGASVKISCRADDDPYTDDDTFTKYHTHWIRQAPGQRPEWLGVISPHYARPIYSYKFQDRLTLTRDSSLTAVYFELRGLQPDDTGIYFCARDPFGNMYPHYNYHMDVWGGGTTVIVSA
# VL: EVVLTQSPAILSVSPGDRVILSCKASEGLSSSDLAWYRFKRGQIPTLVIFGASTRARGTPDRFSGSGSGTDFTLTINRVEPEDFATYYCQRYGGTPITFGGGTTLDKK
# B5: 561_02_22 (antibody, V domains shown)
# VH: QGRLFQSGAEVKRPGASVKISCRADDDPYTDDDTFTKYYTHWIRQAPGQRPEWLGVISPHFARPIYSYKFRDRLTLTRDSSLTAVYFELRGLQPDDTGIYFCARDPFGDMYPHYNYHMDVWGGGTTVIVSA
# VL: EVVLTQSPAILSVSPGDRVILSCKASEGLSSSDLAWYRFKGGQIPTLVIFATSNRARGTPDRFSGSGSGTDFTLTISKVQPEDFATYYCQRYGGTPITFGGGTTLDKK
# B6: 561_02_27 (antibody, V domains shown)
# VH: QGRLFQSGTEVKRPGASVKISCRADDDPYTDDDTFTKYYTHWIRQAPGQRPEWLGVISPHYARPIYSYKFRDRLTLTRDSSLTAVYFELRGLQPDDTGIYFCARDPFGDMYPHYNYHMDVWGGGTTVIVSA
# VL: EVVLTQSPAILSVSPGDRVILSCKASEGLSSSDLAWYRFKGGQIPTLVIFGASNRARGTPDRFSGSGSGTDFTLTINRVEPEDFATYYCQRYGGTPITFGGGTTLDKK
# B7: 561_02_47 (antibody, V domains shown)
# V domain 1: QRRLFQSGTEVKRPGASVKISCRADDDPYTDDDTFTKYYTHWIRQAPGQRPEWLGVISPHYARPIYSYKFQDRLTLTRDSSLTAVYFELRGLQPDDTGIYFCARDPFGDMYPHYNYHMDVWGGGTTLIVSA
# V domain 2: EVVLTQSPAILSVSPGDRVILSCKASEGLSSSDLAWYRFKSGQIPTLVIFGASNRARGTPDRFAGSGSGTDFTLTINRVEPEDFATYYCQRYGGTPITFGGGTTLDKK
# B8: 561_03_59 (antibody, V domains shown)
# VH: QRRLFQSGTEVKRPGASVRISCRADDDPYTDDDTFTKYWTHWIRQAPGQRPEWLGVISPHFARPIYSYKFQDRLTLTRDSSLTGVYLELKGLQLDDSGIYFCARDPFGDRAPHYNYHMDVWGGGTAVIVSS
# VL: EVVLTQSPAILSVSPGDRVSFSCRASEGLDTSQLAWYRFKRGQIPTLVIFATSNRARGTPDRFSGSGSGADFTLTINRVEPEDFATYYCQRYGATPITFGGGTTLDKK
# B9: 561_09_23 (antibody, V domains shown)
# VH: QAHLFQSGAELKRPGASVRISCRADDDPYTDDDTFTKYYTHWIRQAPGQRPEWLGVISPHFARPIYSYKFQDRLTLTRDSSLTAVYLELRSLRLDDTGIYYCARDPFGERAPHYNYHMDVWGAGTTVIVSS
# VL: EVVLTQSPAILSASPGDRVVLSCRASEGLDSSQLAWYRFKDGQIPRLVLFGVSNRARGTPDRFSGGGSGADFTLTISRVEREDFATYYCQRFGATPITFGGGTRLDMN
# B10: 561_10_07 (antibody, V domains shown)
# VH: QGRFFQSGAEVKRPGASVRISCRADDDPYTDDDTFTKYWTHWIRQAPGQRPEWLGVISPHFARPIYSYKFRDRLTLTRDSSLTAVYLELQGLQPDDSGIYYCARDPFGDRAPHYNYHMDVWGGGTAVIVSS
# VL: EVVLTQSPAILSVSPGDRVILSCRASEGLDPTHLAWYRFKRGQIPTLVIFGTSNRARGTPDRFSGSGSEADFTLTITRVEPEDFATYYCQRYGGTPITFGGGTTLDKK
# B11: 561_08_52 (antibody, V domains shown)
# VH: QLVQWGGGVKRPGASVRISCQCPEDTFTKYYIHWVRQAPGRGLEWLGMVSPHGGRPFHTSEFRDRLTMTRDIHETTHHMVLSGLGVADSGTYFCARDPLGEKSPAYSHHMDVWGGGATVIVSS
# VL: AVVLTQSPVTLSVSPGETAILSCRASHGLDTRHVTWFQQKRGQAPRLLIFATYRRASGVSDRFRATDSGSATDFNLTITAVEPADFATYFCQTYGAITPITFGGGTKVDLK
# B12: 561_09_89 (antibody, V domains shown)
# VH: QLVQWGGGVKRPGASVRISCQCPEDTFTKYYIHWVRQAPGRGLEWLGMVSPHGGRPFHTSEFRDRLTMTREIHETTHHMVLSGLGVGDSGTYFCARDPLGEKSPAYSHHMDVWGGGATVIVSS
# VL: AVVLTQSPVTLSVSPGESAVLSCRASHGLDTRHVTWFQQKRGQAPRLLIFATSRRASGVSDRFRATDGGSATDFNLTITAVEPADFATYYCQTYGAITPITFGGGTKLDLK
# B13: 561_09_71 (antibody, V domains shown)
# VH: QLAQSGGGVKKPGASVKISCVTPESTFTKYWLHWVRQAPGQGFEWLGVVSPHGGRPMFANKFRDRLTLTRDIHTTTHYMELRGLTSDDTAIYYCARDSFGETFRHSGDQPYQMDVWGGGTNIVVSS
# VL: EPVLTQSPGTLSLSPGERATLSCRASQGFSVDHLAWFQKRPGRPPRLLIFETSRRANGSPDRFSGSASGAEYTLTISNVEPEDFAVYYCQSYGSITPLIFGGGTRVDVK
# B14: 561_01_23 (antibody, V domains shown)
# VH: QLVQSGGGVRRPGASVKISCETPEYTFTKYWLHWLRQAPGRGLEWMGVVSPHGGRPMFAFEFRDRLTLTRDIHTTTHYMELRGLTSDDTAVYFCARDSFGETFRGHDQPYQMDVWGGGTTVVVSS
# VL: EPVLTQSPGTLSLSPGEGATLSCRARQGFSADHVAWFQKKPGRPPRLLIFEASRRASGTPERFSGGGSGPEYTLTITRVEPEDFAVYYCQSYGSITPLVFGGGTRVDVK
# B15: 561_01_29 (antibody, V domains shown)
# VH: QLVQSGGGVRRPGASVKVSCETPEYTFTKYWLHWLRQAPGRGLEWMGVVSPHGGRPMFAFEFRDRLTLTRDIHTTTHYMELRGLTSDDTAVYFCARDSFGETFRGHDQPYQMDLWGGGTTVVVSS
# VL: EPVLTQSPGTLSLSPGEGVTLSCRARQGFSADHVAWFQKKPGRPPRLLIFETSRRASGTPERFSGGGSGPEYTLTITRVEPEDFAVYYCQSYGSITPLVFGGGTRVDVK
# B16: 561_02_12 (antibody, V domains shown)
# VH: QLVQSGGGVRRPGASVKISCETPEDTFTKYWLHWLRQAPGQGLEWMGVVSPHGGRPMFAFEFRDRLTLTRDIHTTTHFMELRGLTSDDTAVYYCARDPFGETFRGHDQPYRMDVWGGGTTIVVSS
# VL: EPVLTQSPGTLSVSPGEGATLSCRARQGFSADHVAWFQKKPGRPPRLLIFEASRRASGTPERFSGSGSGPEYTLTITRVEAEDFAVYYCQSYGSITPLVFGGGTRVDVK
# B17: 561_02_21 (antibody, V domains shown)
# VH: QLVQSGGGVKRPGASVKISCETPEYTFTKYWLHWLRQAPGQGLEWMGVVSPHGGRPMFAFEFRDRLTLTRDIHTTTHYMELGGLTLDDTAVYYCARDPFGETFRGREQPYQMDVWGGGTTIVVTS
# VL: EALLTQSPGTLSLSPGEGATLSCRARQGFSADHVAWFQKKPGRPPRLLIFEASRRASGTPERFSGSGSGPEYTLTITRVEPEDFAVYYCQSYGSITPLVFGGGTRVDVK
# B18: 561_03_07 (antibody, V domains shown)
# VH: QLVQSGGGVRRPGASVKISCETPEDTFTKYWLHWLRQAPGQGLEWMGVVSPHGGRPMFAFEFRDRLTLTRDIHTTTHFMELGGLTSDDTAVYYCARDPFGETFRGHDQPYRMDVWGGGTTIVVSS
# VL: EPVLTQSPGTLSVSPGEGATLSCRARQGFSADHVAWFQKKPGRPPRLLIFEASRRASGTPERFSGSGSGPEYTLTITRVEPEDFAVYYCQSYGSITPLVFGGGTRVDVK
# B19: 561_03_78 (antibody, V domains shown)
# VH: QLVQSGGGVRRPGASVKISCETPEYTFTKYWLHWLRQAPGRGLEWMGVVSPHGGRPMFAFEFRDRLTLTRDIHTTTHYMELGGLTSDDTAVYYCARDPFGETFRGHDQPYQMDVWGGGTTIVVSS
# VL: EPVLTQSPGTLSLSPGERATLSCRARQGFSADHVAWFQKKPGRPPRLLIFEASRRASGTPERFSGSGSGPEYTLTITRVEPEDFAVYYCQSYGSITPLVFGGGTRVDVK
# What was measured:
# [1] = target: YU2_(gp140) (foldon trimer) (HIV-1 (strain YU2))
# [2] = target: BG505_(SOSIP.664) Env trimer (HIV-1 BG505 (clade A), SOSIP.664 with …, stabilised)
Binder,binding result [1],binding result [2]
B1,binds,binds
B2,binds,binds
B3,binds,binds
B4,binds,binds
B5,binds,binds
B6,binds,binds
B7,binds,binds
B8,binds,binds
B9,binds,binds
B10,binds,binds
B11,binds,binds
B12,binds,binds
B13,binds,binds
B14,binds,binds
B15,binds,binds
B16,binds,binds
B17,binds,binds
B18,binds,binds
B19,binds,binds
